Patent US20220290149, “METHOD OF DETECTION OF FIBRIN CLOTS” (I-ZUM-X PTY LTD, published 2022)
Positions count from the first letter of the chain named.

What was measured:
[1] = molecular target: T1, D-dimer (TGpr1; fibrin clot degradation product DD) (UniProt P02671;P02675;P02679-2 P02671:124-225,P02675:164-491,P02679-2:89-437); assay: ELONA; TGpr1/SUBpr1 binding ratio, 500 nM aptamer; conditions: chain copies: 2
Experimental: FIG. 6 is a graph of the relative fluorescence of five aptamers to TGpr-1 protein and SUBpr-1 protein. The test was performed with an ELONA method with fixed aptamer concentration (500 nM) and protein amount (2 ug/well). *p<0.01.

[2] = molecular target: T1, D-dimer (TGpr1; fibrin clot degradation …); assay: ELONA; conditions: chain copies: 2
[3] = molecular target: Insoluble cross-linked fibrin / plasma-derived blood clot (Homo sapiens, UniProt P02671-2;P02675;P02679-2 P02671-2:36-644,P02675:45-491,P02679-2:27-437); assay: qPCR-based binding assay; conditions: tags: clot prepared from citrated plasma plus CaCl2
Sequence of Insoluble cross-linked fibrin / plasma-derived blood clot (P02671 other isoform, or with tags, fused parts or gaps, chain 1 of 3): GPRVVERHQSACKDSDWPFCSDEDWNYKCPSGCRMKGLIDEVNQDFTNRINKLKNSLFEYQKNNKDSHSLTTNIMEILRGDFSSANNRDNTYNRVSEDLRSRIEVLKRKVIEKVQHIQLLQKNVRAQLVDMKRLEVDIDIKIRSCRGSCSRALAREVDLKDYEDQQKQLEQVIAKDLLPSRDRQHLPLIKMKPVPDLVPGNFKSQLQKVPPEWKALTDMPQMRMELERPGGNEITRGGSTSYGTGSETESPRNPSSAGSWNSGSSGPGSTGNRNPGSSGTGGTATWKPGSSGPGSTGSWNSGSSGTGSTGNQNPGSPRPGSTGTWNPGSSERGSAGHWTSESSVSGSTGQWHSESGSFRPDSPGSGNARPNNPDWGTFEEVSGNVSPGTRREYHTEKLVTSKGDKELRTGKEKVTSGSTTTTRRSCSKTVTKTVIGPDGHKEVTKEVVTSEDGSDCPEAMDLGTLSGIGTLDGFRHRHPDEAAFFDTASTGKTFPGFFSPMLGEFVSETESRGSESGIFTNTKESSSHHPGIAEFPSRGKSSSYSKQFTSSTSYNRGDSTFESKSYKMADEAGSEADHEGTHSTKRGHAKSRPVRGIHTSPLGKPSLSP
Sequence of Insoluble cross-linked fibrin / plasma-derived blood clot (P02675 45-491, chain 2 of 3): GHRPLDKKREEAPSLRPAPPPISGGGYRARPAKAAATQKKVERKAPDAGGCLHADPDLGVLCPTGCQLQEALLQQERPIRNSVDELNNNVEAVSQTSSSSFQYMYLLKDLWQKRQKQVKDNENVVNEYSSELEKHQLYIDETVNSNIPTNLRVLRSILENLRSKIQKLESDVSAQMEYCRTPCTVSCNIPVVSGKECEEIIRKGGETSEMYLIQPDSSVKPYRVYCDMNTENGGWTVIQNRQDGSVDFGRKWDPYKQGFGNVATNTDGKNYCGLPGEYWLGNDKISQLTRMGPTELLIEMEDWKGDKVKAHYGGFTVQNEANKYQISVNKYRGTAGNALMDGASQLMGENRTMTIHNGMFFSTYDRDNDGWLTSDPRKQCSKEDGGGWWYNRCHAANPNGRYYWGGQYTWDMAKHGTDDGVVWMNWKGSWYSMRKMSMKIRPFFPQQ
Sequence of Insoluble cross-linked fibrin / plasma-derived blood clot (P02679 other isoform, or with tags, fused parts or gaps, chain 3 of 3): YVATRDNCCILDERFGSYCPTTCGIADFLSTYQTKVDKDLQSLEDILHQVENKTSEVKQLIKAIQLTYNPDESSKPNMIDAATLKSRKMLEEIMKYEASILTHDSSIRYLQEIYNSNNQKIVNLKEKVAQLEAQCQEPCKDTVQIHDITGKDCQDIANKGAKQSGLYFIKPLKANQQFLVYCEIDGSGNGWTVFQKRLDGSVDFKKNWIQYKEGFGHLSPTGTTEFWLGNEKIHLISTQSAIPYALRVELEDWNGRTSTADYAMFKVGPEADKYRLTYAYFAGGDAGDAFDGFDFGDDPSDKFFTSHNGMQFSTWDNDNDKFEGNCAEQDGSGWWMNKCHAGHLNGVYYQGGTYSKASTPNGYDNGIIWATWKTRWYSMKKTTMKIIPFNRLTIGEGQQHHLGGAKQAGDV

Fibrinogen = Fibrinogen (UniProt P02671-2;P02675;P02679-2 P02671-2:20-644,P02675:31-491,P02679-2:27-437); assay: ELONA; 100 nM aptamer; conditions: chain copies: 2; label: 5' FAM (ELONA and imaging)
Sequence of Fibrinogen (P02671 other isoform, or with tags, fused parts or gaps, chain 1 of 3): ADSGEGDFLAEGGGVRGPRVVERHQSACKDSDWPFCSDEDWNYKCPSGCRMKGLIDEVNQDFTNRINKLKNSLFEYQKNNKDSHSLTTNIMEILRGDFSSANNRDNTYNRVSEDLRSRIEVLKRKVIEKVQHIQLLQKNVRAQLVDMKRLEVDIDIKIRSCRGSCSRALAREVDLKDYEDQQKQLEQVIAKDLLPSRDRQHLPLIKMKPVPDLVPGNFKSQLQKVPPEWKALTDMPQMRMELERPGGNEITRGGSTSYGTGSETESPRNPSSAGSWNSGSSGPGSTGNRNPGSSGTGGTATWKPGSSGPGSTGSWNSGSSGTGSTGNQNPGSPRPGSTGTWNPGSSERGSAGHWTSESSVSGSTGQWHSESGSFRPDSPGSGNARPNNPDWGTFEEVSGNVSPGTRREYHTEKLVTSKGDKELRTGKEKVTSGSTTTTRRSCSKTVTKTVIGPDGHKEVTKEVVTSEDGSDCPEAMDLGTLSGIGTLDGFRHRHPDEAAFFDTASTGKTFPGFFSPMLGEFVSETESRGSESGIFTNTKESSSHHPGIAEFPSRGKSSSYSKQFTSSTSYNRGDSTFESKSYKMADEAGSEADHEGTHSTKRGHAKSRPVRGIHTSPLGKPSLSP
Sequence of Fibrinogen (P02675 31-491, chain 2 of 3): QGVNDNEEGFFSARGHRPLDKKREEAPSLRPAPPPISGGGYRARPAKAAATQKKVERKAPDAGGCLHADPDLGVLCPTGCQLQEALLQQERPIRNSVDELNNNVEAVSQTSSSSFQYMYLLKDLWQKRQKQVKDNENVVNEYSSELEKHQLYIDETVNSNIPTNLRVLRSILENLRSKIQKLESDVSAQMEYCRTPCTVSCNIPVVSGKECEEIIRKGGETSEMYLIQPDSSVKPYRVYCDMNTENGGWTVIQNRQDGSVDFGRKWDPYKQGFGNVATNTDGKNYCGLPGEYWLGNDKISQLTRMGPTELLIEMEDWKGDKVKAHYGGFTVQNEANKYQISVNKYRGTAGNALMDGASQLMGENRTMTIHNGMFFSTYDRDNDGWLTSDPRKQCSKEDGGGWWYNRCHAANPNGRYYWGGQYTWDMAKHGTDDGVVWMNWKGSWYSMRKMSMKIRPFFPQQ

[4] = molecular target: T1, D-dimer (TGpr1; fibrin clot degradation …); assay: ELONA; 100 nM aptamer; conditions: chain copies: 2; label: 5' FAM (ELONA and imaging)
[5] = molecular target: T1, D-dimer (TGpr1; fibrin clot degradation …); assay: ELONA; unit printed as Nm; conditions: chain copies: 2
[6] = molecular target: T1, D-dimer (TGpr1; fibrin clot degradation …); assay: ELONA; considered non-specific; conditions: chain copies: 2; label: 5' biotin

T1 sequence (P02671 124-225, chain 1 of 3): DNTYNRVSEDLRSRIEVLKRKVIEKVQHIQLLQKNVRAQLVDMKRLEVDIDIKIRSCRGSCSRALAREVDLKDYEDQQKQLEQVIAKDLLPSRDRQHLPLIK
T1 sequence (P02675 164-491, chain 2 of 3): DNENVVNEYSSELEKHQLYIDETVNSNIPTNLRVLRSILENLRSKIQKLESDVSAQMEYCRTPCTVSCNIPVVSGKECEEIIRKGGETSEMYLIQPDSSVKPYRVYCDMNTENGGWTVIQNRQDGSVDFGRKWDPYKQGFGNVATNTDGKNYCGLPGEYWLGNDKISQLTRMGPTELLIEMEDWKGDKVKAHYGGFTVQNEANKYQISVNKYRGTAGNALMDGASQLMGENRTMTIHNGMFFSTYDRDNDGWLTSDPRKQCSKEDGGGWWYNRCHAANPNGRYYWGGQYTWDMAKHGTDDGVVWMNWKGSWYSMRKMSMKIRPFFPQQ
T1 sequence (P02679 other isoform, or with tags, fused parts or gaps, chain 3 of 3): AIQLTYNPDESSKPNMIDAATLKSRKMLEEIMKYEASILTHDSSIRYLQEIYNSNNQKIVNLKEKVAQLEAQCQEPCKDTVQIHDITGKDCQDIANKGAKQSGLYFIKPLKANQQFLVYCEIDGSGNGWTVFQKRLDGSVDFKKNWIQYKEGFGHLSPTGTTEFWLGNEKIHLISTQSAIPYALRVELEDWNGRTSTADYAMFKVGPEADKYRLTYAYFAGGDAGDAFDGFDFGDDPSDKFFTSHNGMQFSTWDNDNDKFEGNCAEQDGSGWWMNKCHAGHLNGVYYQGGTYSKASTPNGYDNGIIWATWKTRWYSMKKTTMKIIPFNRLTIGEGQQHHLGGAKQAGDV

In the case of AAGGGAAAGTGTATACACTATGGCT (ssDNA) [EM9-02], the binding signal [1] is reported as 1.85 ratio.

In the case of ACAGTGTGGGCGGGCGGGTGGTTTGGAGCTGGTAGCGGTA (ssDNA) [AP10-01], the Kd [2] is reported as 54 nM and the binding signal [1] is reported as 4.21 ratio.

B1: RNV603 (ssDNA)
DNA: GGACAGGACCACACCCAGCGTGCGTGAAATTCGGGGCATGGTTAGGATAGGTAATATTTTGGCTCCTGTGTGTCGCTTTGT
B1: binds [3].

B2: RNV604 (ssDNA)
DNA: GGACAGGACCACACCCAGCGGATACCTGAAGCTGGCCCACATTTATCTACGCGATATATTGGCTCCTGTGTGTCGCTTTGT
B2: binds [3].

B3: RNV606 (ssDNA)
DNA: GGACAGGACCACACCCAGCGGATAACTAGGCACCCGGTGTCGTTATTATGACAAGATATTGGCTCCTGTGTGTCGCTTTGT
B3: binds [3].

B4: RNV607 (ssDNA)
DNA: GGACAGGACCACACCCAGCGAGGAAATATTTAGGCACCCGGTCTCTGAAAATATTGTGCTGGCTCCTGTGTGTCGCTTTGT
B4: binds [3].

B5: RNV602 (ssDNA)
DNA: GGACAGGACCACACCCAGCGTAATAATATGGGGCTTGCGGTCCCCGATTTTTATGCACACGGCTCCTGTGTGTCGCTTTGT
B5: no binding (Fibrinogen); no binding [4].

B6: RNV605 (ssDNA)
DNA: GGACAGGACCACACCCAGCGATAATTAGGCATCCGGTCGCCAACCTTGGAGAAACTATCTGGCTCCTGTGTGTCGCTTTGT
B6: no binding (Fibrinogen); no binding [4].

B7: AP10-01-81 (ssDNA)
DNA: GGACAGGACCACACCCAGCGACAGTGTGGGCGGGCGGGTGGTTTGGAGCTGGTAGCGGTAGGCTCCTGTGTGTCGCTTTGT
B7 gave a Kd [5] of 59 nM.

B8: EM1 (ssDNA)
DNA: ACAAAGCGACACACAGGAGCCCAATGATGCTGTTATGGCGCTTTGTGGACAGGACCACACCCAGCG
B8 was tested, and the Kd [6] was > 1000 nM.

B9: AP1 (ssDNA)
DNA: ACAAAGCGACACACAGGAGCCCGGTCGGCGGGGGGGCGGGTGGAGAACGAGGTAGGGGTCAGGACAGGACCACACCCAGCG
In the case of B9, the Kd [6] is reported as > 1000 nM.

B10: AP3 (ssDNA)
DNA: B9 DNA with G33T
In the case of B10, the Kd [6] is reported as > 1000 nM.
